Each block holds one substance with its values, some of them ahead of it.
How the values were obtained:
[1] = molecular target: human Trop-2 (human) (UniProt P09758); experiment: cell binding on NCI-N87 cells, anti-mouse-HRP, luminescence
[2] = molecular target: human Trop-2 (human) (UniProt P09758); experiment: cell binding on NCI-N87 cells, Bmax against murine RS7 as reference
[3] = molecular target: human Trop-2 (human) (UniProt P09758); experiment: cell binding on NCI-N87 cells, 0.03 to 66 nM antibody, anti-mouse-HRP, luminescence
[4] = molecular target: human Trop-2 (human) (UniProt P09758); experiment: cell binding assay, cell line not stated
[5] = molecular target: human Trop-2 (human) (UniProt P09758); experiment: cell-based or functional assay

human Trop-2 (human), sequence (P09758 27-323): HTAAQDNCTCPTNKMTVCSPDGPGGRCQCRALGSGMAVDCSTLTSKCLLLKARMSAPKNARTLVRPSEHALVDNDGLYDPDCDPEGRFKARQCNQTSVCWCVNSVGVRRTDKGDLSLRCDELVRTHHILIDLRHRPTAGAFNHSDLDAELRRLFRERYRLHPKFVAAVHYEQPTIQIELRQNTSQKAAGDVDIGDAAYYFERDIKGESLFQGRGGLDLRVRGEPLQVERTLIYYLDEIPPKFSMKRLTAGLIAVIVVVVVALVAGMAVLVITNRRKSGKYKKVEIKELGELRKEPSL

Substance: MAB650 murine monoclonal antibody against human Trop-2 (R&D Systems)
maximum binding (Bmax) (relative luminescent units) [1]: 6020 | reduction of maximum binding (Bmax) compared to RS7 [2]: 50% | Kd [3]: 0.49 nM

Substance: humanized RS7 (hRS7) anti-Trop-2 antibody, unconjugated IgG
ADCC, specific lysis of BxPC-3 cells by PBMCs (effector to target 100:1, antibody 33.3 nM) [5]: 8.5%

The remaining lines, values ahead:

maximum binding (Bmax) (relative luminescent units) [1]: 8470 | reduction of maximum binding (Bmax) compared to RS7 [2]: 25% | Kd [3]: 0.52 nM
Substance: 162-46.2 murine monoclonal antibody against human Trop-2

Kd [4]: 1.2 nM
Substance: hRS7-CL2-SN-38 (hRS7 IgG conjugated to SN-38 by the CL2 linker) (antibody)

Kd [4]: 1.2 nM
Substance: hRS7-CL2A-SN-38 (hRS7 IgG conjugated to SN-38 by the CL2A linker) (antibody)

Reference: US20170014527A1
